Starred links: 1 amine or outer side, 2 acyl side, 3 side chain; linkers in the order of their positions; H or OH if unused. Non-standard residues stand in square brackets, D forms with d. Groups on a side chain read outwards from the residue. No end group written: not given here. *: point of attachment. Amino‑C3‑Gly(Bis) = branched linker 2-[bis(3-aminopropyl)amino]acetyl, two legs on the propylamino groups, O=C(CN(CCCN[*:1])CCCN[*:3])[*:2]; C20 diacid = O=C(O)CCCCCCCCCCCCCCCCCCC(=O)*; C18 diacid = O=C(O)CCCCCCCCCCCCCCCCC(=O)*; γGlu = O=C(O)[C@H](CCC(=O)[*:2])N[*:1]; Trx = NC[C@H]1CC[C@H](C(=O)O)CC1; AEEA = NCCOCCOCC(=O)O; Aib = CC(C)(N)C(=O)O
B1: N{Alpha}([Aib8,Glu22,Arg26,Arg34,Pro37]-GLP-1-(7-37)-peptidyl)-N{Epsilon}[2-[bis[3-[[2-[2-[2-[[2-[2-[2-[[2-[2-[2-[[2-[2-[2-[[2-[2-[2-[[2-[2-[2-[[(4S)-4-carboxy- … (peptide)
peptide: H[Aib]EGTFTSDVSSYLEEQAAREFIAWLVRGRPK([Amino‑C3‑Gly(Bis)-code 2×AEEA-AEEA-AEEA-AEEA-AEEA-AEEA-γGlu-Trx-C20 diacid])
notes: analogue (8Aib, 22E, 26R, 34R, 37P, 38K) GLP-1(7-37)
B2: N{Epsilon-37}-[2-[3-[[2-[2-[2-[[2-[2-[2-[[2-[2-[2-[[2-[2-[2-[[(2S)-2- … (peptide)
peptide: XXEGTFTSDVSSYLEEQAAREFIAWLVRGRK
modifications: not fully specified; Imp (imidazopropionic acid, deamino-histidine) at 7; Aib at 8; Lys37 epsilon-acylated with the branched side chain of the name (GLP-1(7-37) numbering, first residue = 7)

target: T1, human GLP-1 receptor (human, UniProt P43220 24-463); assay: competitive SPA, displacement of [125I]-GLP-1-(7-36)NH2 from BHK membranes with human GLP-1 receptor, high HSA (2.0%)
T1 construct: whole, on cells
Procedure: (§1) 1. For the receptor binding assay in the presence of low HSA (0.005%) 50 μl of the assay buffer was added to each well of an assay plate. Assay continued with step 3. 2. For the receptor binding assay in the presence of high HSA (2%) 50 μl of the 8% albumin stock was added to each well of an assay plate. Assay continued with step 3. 3. […] 4. Cell membrane aliquots were thawed and diluted to their working concentration. Fifty μl were added to each well in the assay plate. 5. WGA SPA beads were suspended in assay buffer at 20 mg/ml. The suspension was diluted to 10 mg/ml in assay buffer just prior to addition to the assay plate. Fifty μl were added to each well in the assay plate. 6. […] A 25 μl aliquot was reserved for measuring total counts/well. 7. The assay plate was incubated for 2 h at 30° C. 8. The assay plate was centrifuged for 10 min. 9. The assay plate was read in a Packard TopCount NXT instrument.
(§2) The data from the TopCount instrument were transferred to GraphPad Prism software. Individual replicates were analysed using non-linear regression.

Binder | IC50
B1 | 30 nM
B2 | 45 nM
H[Aib]EGTFTSDVSSYLEEQAAREFIAWLVRK([AEEA-AEEA-AEEA-AEEA-AEEA-AEEA-Amino‑C3‑Gly(Bis)-code 2×γGlu-Trx-C20 diacid])RG (X = Aib) [N{Epsilon-35}-[2-[2-[2-[[2-[2-[2-[[2-[2-[2-[[2-[2-[2-[[2-[2-[2-[[2- …] | 7.2 nM
H[Aib]EGTFTSDVSSYLEEQAAREFIEWLVRGK([AEEA-AEEA-AEEA-AEEA-Amino‑C3‑Gly(Bis)-code 2×γGlu-C18 diacid])G | 110 nM

target: T1, human GLP-1 receptor; assay: cell-based or functional assay

Binder | EC50 (pM), in vitro potency, CRE luciferase reporter gene assay in BHK cells expressing the human GLP-1 receptor
B1 | 15 pM
B2 | 12 pM
H[Aib]EGTFTSDVSSYLEEQAAREFIAWLVRK([AEEA-AEEA-AEEA-AEEA-AEEA-AEEA-Amino‑C3‑Gly(Bis)-code 2×γGlu-Trx-C20 diacid])RG (X = Aib) [N{Epsilon-35}-[2-[2-[2-[[2-[2-[2-[[2-[2-[2-[[2-[2-[2-[[2-[2-[2-[[2- …] | 9.5 pM
H[Aib]EGTFTSDVSSYLEEQAAREFIEWLVRGK([AEEA-AEEA-AEEA-AEEA-Amino‑C3‑Gly(Bis)-code 2×γGlu-C18 diacid])G | 7.1 pM

target: T1, human GLP-1 receptor; assay: competitive SPA, displacement of [125I]-GLP-1-(7-36)NH2 from BHK membranes with human GLP-1 receptor, low HSA (max. 0.001%)
Procedure: as §1, with “For the receptor binding assay in the presence of low HSA (0.005%) 50 μl of the assay buffer was added to each well of an assay plate.” left out
as §2

Binder | IC50
B1 | 0.31 nM
B2 | 0.13 nM
H[Aib]EGTFTSDVSSYLEEQAAREFIAWLVRK([AEEA-AEEA-AEEA-AEEA-AEEA-AEEA-Amino‑C3‑Gly(Bis)-code 2×γGlu-Trx-C20 diacid])RG (X = Aib) [N{Epsilon-35}-[2-[2-[2-[[2-[2-[2-[[2-[2-[2-[[2-[2-[2-[[2-[2-[2-[[2- …] | 0.33 nM
H[Aib]EGTFTSDVSSYLEEQAAREFIEWLVRGK([AEEA-AEEA-AEEA-AEEA-Amino‑C3‑Gly(Bis)-code 2×γGlu-C18 diacid])G | 1.1 nM
H[Aib]EGTFTSDVSSYLEEQAAREFIAWLVRGK([AEEA-AEEA-AEEA-AEEA-AEEA-AEEA-Amino‑C3‑Gly(Bis)-code 2×γGlu-Trx-C20 diacid])G [N{Epsilon-36}-[2-[2-[2-[[2-[2-[2-[[2-[2-[2-[[2-[2-[2-[[2-[2-[2-[[2- …] | 1.2 nM
H[Aib]EGTFTSDVSSYLEEQAAREFIAWLVRGK([Amino‑C3‑Gly(Bis)-code 2×AEEA-AEEA-AEEA-AEEA-γGlu-C18 diacid])G | 0.68 nM

Source: patent US20170320927A1 (Novo Nordisk, published 2017)
